Patent US20240245613A1, “PEPTIDE LIQUID DROPLETS AND METHODS OF USING THE SAME” (RAMOT AT TEL AVIV UNIVERSITY LTD., priority 2021, published 2024)
Entries after “also recorded” stand apart in the source; their conditions may differ.

How the values were obtained:
Format in all cases: physicochemical
[1] = Fluorescence recovery after photobleaching (FRAP) of peptide droplets; conditions: for apparent diffusion coefficient, comparison in words: among the four LLPS-promoting peptides; for Apparent diffusion coefficient D: droplets prepared with 0.5% FITC labeled peptide, calculated from recovery time; for mobility and dynamics of the droplets: unit not given
Procedure: FRAP experiments were performed by a Zeiss Zen 900 confocal microscope with ×20/0.8 NA Plan-Apochromat air objective. A circular area with radius of 2.5 μm was bleached with a 488 nm laser 100% intensity at 10 iterations; subsequent recovery of the bleached area was recorded with a 488 nm laser. Photobleaching correction and recovery time were calculated using OriginLab. The final FRAP recovery curve is the average of recovery curves collected from five separate droplets.
A fluorescence […] after photo bleaching (FRAP) used to evaluate the diffusion of the droplets. The droplets were prepared with 0.5% of FITC labeled peptide and were observed by confocal microscope. The apparent diffusion coefficients were calculated as followed: […]

[2] = Phase diagrams / liquid-liquid phase separation (turbidity at 500 nm, optical and confocal microscopy); conditions: 0.2 M NaCl; for liquid-liquid phase separation (LLPS) / droplet formation, in words: as a function of peptide concentration and pH; for peptide concentration at which phase separation is observed: pH increased until turbidity appeared
Procedure: 150 μl of 5, 10, 20 and 30 mM peptide solutions were prepared in 20 mM of the suitable buffer (citrate buffer for a pH range of 3-6, tris buffer for pH range of 7-9 and ammonium bicarbonate to a pH range of 9-12) with 0.2 M NaCl. The pH was increased gradually until a turbidity appeared and measured as described below. The turbidity of 35 μl was measured in triplicates at λ=500 nm. This process repeated at higher pH, the pH increased until the turbidity faded, and a sediment appeared. All experiments were performed in triplicates and the presented value is the average.
150 μl of 20 μM peptide solutions were prepared in 20 mM Tris buffer. The pH was adjusted to the desired value of 6, 7, 8, 9, 10 and 11. The turbidity of 35 μl was measured in triplicates at λ=500 nm.
All samples were imaged in a 96 Well Black Glass bottom plate, glass 1.5H (made by Hangzhou Xinyou, and purchased from Danyel Biotech) 10 minutes after preparation. The images were taken by Zeiss Zen 900 confocal microscope with ×20/0.8 NA Plan-Apochromat air objective. The light microscopy images were taken at PMT mode. PMT imaging were taken with 561 nm laser and fluorescence imaging were taken with 488, 561 and 405 nm lasers for fluorescein, rhodamine B and GFP, respectively.
A phase diagram was created by increasing the pH at various peptide concentrations until a visible turbidity occurred. The turbidity was measured as the absorbance at λ=500 nm. To confirm that the turbidity occurred as a result of coacervation rather than precipitation, we performed an optical microscopy analysis of 20 mM peptide solution at pH 8.

[3] = Encapsulation efficiency of fluorescent payloads in peptide droplets; conditions: 20 mM peptide, 20 mM Tris + 0.2 M NaCl, pH 8
Procedure: 1 mM Stock solutions of the fluorescein and Rhodamine B dye molecules were prepared in 20 mM Tris buffer. A 20 mM peptide coacervated solutions were prepared in 20 mM Tris+0.2 M NaCl at pH 8. A 148.5 μl of peptide solution was mixed with 1.5 μl of dye solution in a 1.5 ml Eppendorf tube and was pipetted. The 15 μl of GFP solution was added to 135 μl of peptide solution and was mixed in a 1.5 ml Eppendorf tube and was pipetted. After 10 minutes the samples were centrifuged at 15,000 rcf for 10 minutes. A volume of 120 μl from the supernatant was collected and vortexed and then the absorbance of 35 μl triplicates was measured in a 384 well black plate by Biotek H1 synergy plate reader (purchased from Lumitron, Israel). For GFP, a 7.5 μl of 20 mM Tris buffer to a 7.5 μl GFP aliquot from the purchased stock solution. The 15 μl of GFP solution was added to 135 μl of peptide solution and was mixed in a 1.5 ml Eppendorf tube and was pipetted. The concentration of GFP at the supernatant was measured via fluorescence. All experiments were performed in triplicate. The concentration of the supernatant solutions determinate by calibration curves. Imaging was made to 30 μl of uncentrifuged samples.
LLPS are widely known for the ability to encapsulate small molecules or proteins. This characteristic is important for drug delivery and to exploits coacervate as microreactors. In order to investigate the encapsulation capacity of the designed peptides two fluorescent dyes were used (fluorescein and rhodamine B) and the protein GFP. The peptides WGR-1, WGR-3, WGR-4 and WGR-5 were chosen for this experiment for their diverse chemical characteristics. The encapsulation efficiency was measured via bulk measurements and images of the droplets with the dyes were taken in a fluorescence confocal microscope.

Sequence | apparent diffusion coefficient, comparison in words ([1]; FRAP) | apparent diffusion coefficient (D), fold larger than that of WGR-5 ([1]; FRAP, compared with WGR-5) | Apparent diffusion coefficient D ([1]; FRAP) | liquid-liquid phase separation (LLPS) / droplet formation, in words [2] | encapsulation efficiency of GFP, in words [3] | encapsulation efficiency of fluorescein, in words [3] | mobility and dynamics of the droplets [1] | peptide concentration at which phase separation is observed [2]
WGRGRGRGWPGVGF [WGR-3] | largest apparent diffusion coefficient | more than 5 fold | 5.52E−14 m^2 sec^−1 | created LLPS at higher pH value comparing to WGR-1 | lowest encapsulation efficiency | lowest encapsulation efficiency |  | 
WGRGRGRGWY [WGR-4] | lower diffusion coefficient than WGR-1 |  | 2.36E−14 m^2 sec^−1 | exhibit phase separation at more moderate conditions | highest encapsulation efficiency | no significant difference | 2.36E-14 | 5 mM
WGRGRGWPGVGY [WGR-5] | lowest diffusion |  | 9.27E−15 m^2 sec^−1 | perform a phase separation at similar conditions to WGR-4 | compromised encapsulation efficiency |  |  | 5 mM
WGKGKGKGWPGVGY |  |  |  | showed no visual turbidity; also recorded: LLPS was not observed |  |  |  | 
WGRGRGRGWPGVGY [WGR-1] |  |  | 4.518E−14 m^2 sec^−1 |  |  | no significant difference | 4.52E-14 | 
WGRGRGRGWPGVG (WGRGRGRGWPGVGF) [WGR-2] |  |  |  | arrested phase separation; also recorded: LLPS was not observed |  |  |  | 
